Measured values as given in the supplement of paper PMC7877785.
± gives the uncertainty stated by the source.

Test: self-splicing fitness, log relative to wild type (ln ratio); higher = more splicing; Tetrahymena group I intron in knt gene, E. coli kanamycin selection, DiMSum; sequences stand for … in CUCUCU…GGAGGGAAAAGUUAUCAGGCAUGCACCUGGUAGCUAGUCUUUAAACCAAUAGAUUGCAUCGGUUUAAAAGGCAAGACCGUCAAAUUGCGGGAAAGGGGUCAACAGCCGUUCAGUACCAAGUCUCAGGGGAAACUUUGAGAUGGCCUUGCAAAGGGUAUGGUAAUAAGCUGACGGACAUGGUCCUAACCACGCAGCCAAGUCCUAAGUCAACAGAUCUUCUGUUGAUAUGGAUGCAGUUCACAGACUAAAUGUCGGUCGGGGAAGAUGUAUUCUUCUCAUAAGAUAUAGUCGGACCUCUCCUUAAUGGGAGCUAGCGGAUGAAGUGAUGCAACACUGGAGCCGCUGGGAACUAAUUUGUAUGCGAAAGUAUAUUGAUUAGUUUUGGAGUACUCGUGGUCG
Method in brief: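 DiMSum derived fitness as the error-weighted combination of fold changes across replicates, kanamycin versus no kanamycin, normalised to wild type. E. coli BL21(DE3) held the library, which randomised all eight P1ex-region intron nucleotides within the knt kanamycin-resistance gene on pET-22b(+). Six replicate transformations grew overnight at 37°C or 30°C on LB agar with or without 25 μg/mL kanamycin, also containing 100 μg/mL carbenicillin, 50 μM IPTG and 0.2% rhamnose, and pooled colonies were amplicon-sequenced on an Illumina HiSeq 2500.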

Sequence	self-splicing fitness (ln) (30 °C)	self-splicing fitness (ln) (37 °C)
UUUAAGCAAUAUUACGGUCA	-1.15 ± 0.12	-0.266 ± 0.1
UUUAAGCAAUAUUACGUAUU	-2.16 ± 0.18	-0.782 ± 0.21
UUUAAGCAAUAUUACGUCAU	-3.03 ± 0.22	-1.08 ± 0.15
UUUAAGCAAUAUUACGUGAG	-0.404 ± 0.067	-0.0655 ± 0.094
UUUAAGCAAUAUUACGUGGC	-3.77 ± 0.23	-3.57 ± 0.29
UUUAAGCAAUAUUACGUUGG	-1.45 ± 0.1	-1.67 ± 0.17
UUUCAGCAAUAUUACGAAGU	-1.82 ± 0.22	0.335 ± 0.25
UUUCAGCAAUAUUACGACAA	-0.0726 ± 0.12	-0.913 ± 0.14
UUUCAGCAAUAUUACGACCA	-0.495 ± 0.19	-1.36 ± 0.23
UUUCAGCAAUAUUACGACGU	-1.71 ± 0.17	-0.698 ± 0.18
UUUCAGCAAUAUUACGACUA	0.605 ± 0.12	0.612 ± 0.12
UUUCAGCAAUAUUACGAGUA	-1.3 ± 0.11	-0.691 ± 0.1
UUUCAGCAAUAUUACGAUAU	-1.88 ± 0.15	-0.0425 ± 0.12
UUUCAGCAAUAUUACGCAAG	-1.27 ± 0.11	-0.106 ± 0.13
UUUCAGCAAUAUUACGCCGU	-3.39 ± 0.36	-1.45 ± 0.26
UUUCAGCAAUAUUACGCGAG	-1.16 ± 0.14	0.301 ± 0.15
UUUCAGCAAUAUUACGGAGU	-2.8 ± 0.28	-1.64 ± 0.38
UUUCAGCAAUAUUACGGCAU	-1.87 ± 0.16	-1.08 ± 0.19
UUUCAGCAAUAUUACGGGAC	-2.81 ± 0.21	-1.4 ± 0.19
UUUCAGCAAUAUUACGGGGG	-2.22 ± 0.15	-1.45 ± 0.16
UUUCAGCAAUAUUACGGGUG	-0.316 ± 0.074	-0.441 ± 0.087
UUUCAGCAAUAUUACGGUCG	-0.269 ± 0.074	0.418 ± 0.11
UUUCAGCAAUAUUACGGUGC	-3.27 ± 0.21	-3.4 ± 0.39
UUUCAGCAAUAUUACGGUUA	0.116 ± 0.071	0.454 ± 0.077

Sequence	self-splicing fitness (ln) (30 °C)	self-splicing fitness (ln) (37 °C)
UUUCAGCAAUAUUACGUAGU	-3.95 ± 0.24	-2.63 ± 0.18
UUUCAGCAAUAUUACGUAUA	-0.408 ± 0.21	-0.0411 ± 0.25
UUUCAGCAAUAUUACGUCCA	-0.967 ± 0.14	0.0389 ± 0.16
UUUCAGCAAUAUUACGUCGU	-3.77 ± 0.17	-1.93 ± 0.11
UUUCAGCAAUAUUACGUCUG	-3.65 ± 0.22	-1.87 ± 0.16
UUUCAGCAAUAUUACGUUAA	-1.45 ± 0.077	-1.09 ± 0.076
UUUGAGCAAUAUUACGAAAU	-3.72 ± 0.2	-2.09 ± 0.17
UUUGAGCAAUAUUACGAAGC	-3.58 ± 0.42	-1.64 ± 0.33
UUUGAGCAAUAUUACGAAUG	-3.15 ± 0.25	-0.965 ± 0.29
UUUGAGCAAUAUUACGACUG	-2.39 ± 0.36	-1.03 ± 0.39
UUUGAGCAAUAUUACGAGGG	-3.32 ± 0.32	-0.691 ± 0.24
UUUGAGCAAUAUUACGCAAU	-3.33 ± 0.48	-1.5 ± 0.46
UUUGAGCAAUAUUACGCGAG	-1.42 ± 0.15	-0.997 ± 0.2
UUUGAGCAAUAUUACGCGGG	-2.66 ± 0.24	-1.45 ± 0.21
UUUGAGCAAUAUUACGCUAU	-3.79 ± 0.42	-2.26 ± 0.23
UUUGAGCAAUAUUACGGAGC	-2.02 ± 0.49	–
UUUGAGCAAUAUUACGGAGU	-2.49 ± 0.28	–
UUUGAGCAAUAUUACGGCUA	-0.914 ± 0.23	-1.2 ± 0.21
UUUGAGCAAUAUUACGGUUC	-3.67 ± 0.37	-3.69 ± 0.46
UUUGAGCAAUAUUACGUGGA	-2.53 ± 0.21	-2.37 ± 0.22
UUUGAGCAAUAUUACGUUAG	–	-1.73 ± 0.35
UUUGAGCAAUAUUACGUUAU	-3.92 ± 0.21	-1.9 ± 0.16
UUUUAGCAAUAUUACGACAG	-0.158 ± 0.23	0.172 ± 0.27
UUUUAGCAAUAUUACGCAAA	-1.98 ± 0.49	-1.47 ± 0.36
